Experiment [1] has as its system Mycobacterium avium subsp. paratuberculosis ATCC 19851. Description: Cell binding assay: protein immobilized on gold surface, capture by SEM and fluorescence microscopy. An excerpt: (§1) In order to assess mycophage and mycophage RBPs for their use as probes of MAP infection, Gp-10 and Gp-6 were immobilized using an established protocol (Singh et. al. Biosens. Bioelect. 26 131 (2010) and used for the specific bacterial capture. Gold Surfaces were modified by cysteamine hydrochloride followed by activation using 2% gluteraldehyde. The recombinant proteins Gp-10, Gp-6 and Gp-31 were immobilized over the surfaces in order to capture the host bacteria Mycobacterium avium subsp. paratuberculosis ATCC 19851 and Mycobacterium smegmatis mc^2155. Bacterial capture was confirmed by fluorescence microscopy and Scanning Electron Microscopy (SEM). Nonspecific attachment was prevented by using bovine serum albumin (BSA) as the blocking layer. A negative control was run in parallel where a similar gold surface was treated with all reagents, but they were not exposed to the recombinant phage proteins.
(§2) Proteins were immobilized onto cysteamine covered gold surfaces that were activated with glutaraldehyde according to the previously described protocol where RBP samples were used instead of whole phage particles. Briefly, the gold substrates were fabricated using piranha cleaned silicon substrates by sputtering a 25 nm thick gold layer. The gold substrates were sonicated in acetone, isopropanol, ethanol and MilliQ (Millipore) water for 5 min each prior to their use (Branson Ultrasonics 1510, 40 kHz frequency). The gold substrates were incubated overnight at 40° C. in a 50 mM solution of cysteamine hydrochloride (Sigma-Aldrich). The cysteamine self assembled monolayer (SAM) substrates were modified by 2% glutaraldehyde (Sigma-Aldrich) for 1 hr at room temperature and washed twice in PBS. These modified substrates were incubated in a 20 μg/ml solution of Gp10 (or Gp6) in PBS overnight at 60° C. The negative control substrate was incubated in PBS only. To block nonspecific binding of bacteria, the substrates were incubated in 1 mg/ml of bovine serum albumin (Sigma-Aldrich) and were washed twice in PBS. The protein covered substrates were exposed to 10^9 cfu/ml of mycobacterial cells in PBS for 1 hr at room temperature. The immobilized surfaces were washed in 0.05 Tween 20 (Sigma-Aldrich) before analysis. For fluorescence microscopy, the bacterial cells were stained with 50 μM resazurin (Sigma-Aldrich) for 20 min before exposure to the substrates covered with the immobilized proteins.
(§3) Bacterial cell binding to the gold surface covered with the immobilized protein was assessed as described previously. Scanning electron microscopy (SEM) and fluorescent microscopy (FM) were used to estimate the number of bacterial cells bound to the surfaces. The samples were fixed with 2% glutaraldehyde for 2 hrs at room temperature followed by a gradient of ethanol from 50% to 100% before SEM. Finally the samples were dried by nitrogen gas. SEM imaging was performed using a Hitachi S-4800/LEO 1430 microscope. Cells were prestained using 50 μM of resazurin stain (Sigma-Aldrich) for the FM-based binding assay. An Olympus IX81 microscope equipped with a FITC filter and a Roper Scientific Cool-Snaps HQ CCD Camera were Used to Record the FM Images. ImageJ Software (USA NIH) was used to analyze the microscopy images. Average numbers of cells bound to the surface are indicated on the basis of the assessment of the cell number, fields of view, and using 8 gold covered chips per test.

For experiment [2], the system named is Mycobacterium smegmatis mc^2155. The experiment is described as above.
Text: as §1, §2, §3

The next experiment deals with S. Typhimurium. Description: Specificity control on protein covered gold surfaces (non-host bacteria). The class given is binding, Salmonella enterica subsp. enterica sv. Typhimurium. Conditions: protein covered gold surface. The text has this: (§4) Mycobacteria phage L5 (HER-386) was obtained from the Felix D'Herelle Reference Centre for Bacterial Viruses (Laval University, Quebec, Canada). Mycobacterium marinum ATCC number 927, M. smegmatis mc^2 155 and M. avium subsp. paratuberculosis ATCC 19851 were used in the binding studies along with Campylobacter jejuni NCTC 11168H, Salmonella enterica subsp. enterica sv. Typhimurium ATCC 19585 and E. coli K-12. E. coli DH5α (Invitrogen) and E. coli BL21(DE3) (Invitrogen) were used for cloning and recombinant protein expression procedures, respectively. All mycobacterial strains were grown in ambient atmosphere. Middlebrook 7H9 (BD Biosciences) broth supplemented with oleic acid-albumin-dextrose catalase (BD Biosciences) and mycobactin J (Allied Monitor Inc.) was used to propagate M. smegmatis at 37° C. for 48 hrs as well as MAP cells at 37° C. for 10 days. […]
(§5) Proteins were immobilized onto cysteamine covered gold surfaces that were activated with glutaraldehyde according to the previously described protocol where RBP samples were used instead of whole phage particles. […] For fluorescence microscopy, the bacterial cells were stained with 50 μM resazurin (Sigma-Aldrich) for 20 min before exposure to the substrates covered with the immobilized proteins.
(§6) Bacterial cell binding to the gold surface covered with the immobilized protein was assessed as described previously. […]

In experiment [3] the test system is Campylobacter jejuni 11168H. The experiment is described as above. The following applies: C. jejuni; protein covered gold surface. The class given is binding.
Text: (§7) The concentrations of the two RBPs of Gp6, Gp-10 and Gp31 were optimized for immobilization. […] The specificity of recognition by the RBPs was confirmed by exposing similar surfaces to E. coli EC12 and Campylobacter jejuni 11168H strains of non-host bacteria.
as §2, with “These modified substrates were incubated in a 20 μg/ml solution of Gp10 (or Gp6) in PBS overnight at 60° C. The negative control substrate was incubated in PBS only. To block nonspecific binding of bacteria, the substrates were incubated in 1 mg/ml of bovine serum albumin (Sigma-Aldrich) and were washed twice in PBS. The protein covered substrates were exposed to 10^9 cfu/ml of mycobacterial cells in PBS for 1 hr at room temperature. The immobilized surfaces were washed in 0.05 Tween 20 (Sigma-Aldrich) before analysis.” left out
as §6

A further experiment has as its system M. marinum cells. Description: Cell binding assay: protein immobilized on gold surface, capture by SEM and fluorescence microscopy. Set-up: species or system Mycobacterium marinum.
Text: as §4, §5, §6

In the next experiment the test system is E. coli. Description: Specificity control on protein covered gold surfaces (non-host bacteria). Format: binding, Escherichia coli. Conditions: E. coli K12; protein covered gold surface.
Text: as §7
as §2, with “These modified substrates were incubated in a 20 μg/ml solution of Gp10 (or Gp6) in PBS overnight at 60° C. The negative control substrate was incubated in PBS only. To block nonspecific binding of bacteria, the substrates were incubated in 1 mg/ml of bovine serum albumin (Sigma-Aldrich) and were washed twice in PBS. The protein covered substrates were exposed to 10^9 cfu/ml of mycobacterial cells in PBS for 1 hr at room temperature. The immobilized surfaces were washed in 0.05 Tween 20 (Sigma-Aldrich) before analysis.” left out
as §6

Experiment [4] deals with T1, peptidoglycan from Bacillus subtilis (Mycobacterium phage L5, UniProt Q05285, I224V/T32I).
T1 construct: pET-30a(+) vector-encoded N-terminal leader (additional residues up to the EcoRI site) (N); made in house; host or cells: E. coli BL21(DE3)
Description: Peptidoglycan binding assay. The procedure: Dehydrated peptidoglycan from Bacillus subtilis (Sigma-Aldrich) was suspended in water to obtain a 10 mg/ml stock that was stored at −20° C. This stock was diluted further in water to obtain a 1 mg/ml working stock solution that was used in the experiments and was prepared fresh each time. A 0.1 mg/ml sample of Gp10 in PBS was incubated with peptidoglycan at a final concentration of 0.1 mg/ml for 30 min at room temperature with occasional stirring. Then, the peptidoglycan was separated from the protein solution by centrifugation (15 min at 18 000 g at 4° C.), an aliquot of the supernatant was mixed with the SDS-sample buffer and analyzed by SDS-PAGE.

“Also recorded” adds a separate entry of the source.

The source of these data is patent US9885713B2, “Diagnosis and treatment of mycobacteria infections” (priority 2013, dated 2018).

T1 sequence (Q05285 other isoform, or with tags, fused parts or gaps T32I/I224V): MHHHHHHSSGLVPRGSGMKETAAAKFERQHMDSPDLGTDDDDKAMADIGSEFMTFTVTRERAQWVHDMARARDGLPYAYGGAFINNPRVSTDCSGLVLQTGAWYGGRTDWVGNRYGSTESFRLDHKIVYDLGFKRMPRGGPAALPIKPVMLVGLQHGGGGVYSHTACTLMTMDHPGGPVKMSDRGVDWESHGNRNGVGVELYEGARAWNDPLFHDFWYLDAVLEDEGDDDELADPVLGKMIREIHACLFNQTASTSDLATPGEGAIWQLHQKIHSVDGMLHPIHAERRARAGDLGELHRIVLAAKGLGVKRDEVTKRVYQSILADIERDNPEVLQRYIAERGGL

B1: Gp10: recombinant His-tagged lysin Gp10 of mycobacteriophage L5 (SEQ ID NO: 3) (protein)
chain: MHHHHHHSSGLVPRGSGMKETAAAKFERQHMDSPDLGTDDDDKAMADIGSEFMTFTVTRERAQWVHDMARARDGLPYAYGGAFTNNPRVSTDCSGLVLQTGAWYGGRTDWVGNRYGSTESFRLDHKIVYDLGFKRMPRGGPAALPIKPVMLVGLQHGGGGVYSHTACTLMTMDHPGGPVKMSDRGVDWESHGNRNGVGVELYEGARAWNDPLFHDFWYLDAVLEDEGDDDELADPVLGKMIREIHACLFNQTASTSDLATPGEGAIWQLHQKIHSIDGMLHPIHAERRARAGDLGELHRIVLAAKGLGVKRDEVTKRVYQSILADIERDNPEVLQRYIAERGGL
modifications: His6 tag
On to B1, for which the bacterial capture is given as 12.3×10^−3 /μm^2 in experiment [1] (gold surface, 20 μg/ml of RBP, MAP ATCC 19851) and 28.7×10^−3 /μm^2 in experiment [2] (gold surface, 20 μg/ml of RBP, Mycobacterium smegmatis mc^2155). Besides, in experiment [1] (protein immobilized on gold surface, 20 μg/ml (Gp6 also 40 μg/ml)), the “capture/binding of MAP cells (in words)” value is recorded as “able to bind; also recorded: specifically bind”. Besides, the “Capture efficiency of M. smegmatis cells” value in experiment [2] (20 μg/ml protein solution used for immobilization onto gold chip) is on record as 28.7±1.18×10^−3 cells/μm^2. In experiment [2] (protein immobilized on gold surface, 20 μg/ml), the “capture/binding of M. smegmatis cells (in words)” value was “able to bind; also recorded: specifically bind”. In addition, the “bacterial capture of non-host bacteria (in words)” value (with S. Typhimurium; in experiment [3]; with E. coli) was “no bacterial capture” in each case. Further, in the experiment on M. marinum cells, the “capture of M. marinum cells (in words)” value was “Neither of the two proteins was able to capture; also recorded: Neither Gp6 nor Gp10 was able to serve as a capturing agent”. Also, the “peptidoglycan binding (in words)” value is listed as “selectively remove recombinant Gp10 from the solution” in experiment [4] (Gp10 purified from the soluble fraction, 0.1 mg/ml Gp10, 0.1 mg/ml peptidoglycan, 30 min, SDS-PAGE of supernatant) and “retained the ability to bind peptidoglycan” in experiment [4] (refolded sample of Gp10 after 8 M urea extraction).
